From patent US20250051821

Target: T1, IFF05588
T1 chain: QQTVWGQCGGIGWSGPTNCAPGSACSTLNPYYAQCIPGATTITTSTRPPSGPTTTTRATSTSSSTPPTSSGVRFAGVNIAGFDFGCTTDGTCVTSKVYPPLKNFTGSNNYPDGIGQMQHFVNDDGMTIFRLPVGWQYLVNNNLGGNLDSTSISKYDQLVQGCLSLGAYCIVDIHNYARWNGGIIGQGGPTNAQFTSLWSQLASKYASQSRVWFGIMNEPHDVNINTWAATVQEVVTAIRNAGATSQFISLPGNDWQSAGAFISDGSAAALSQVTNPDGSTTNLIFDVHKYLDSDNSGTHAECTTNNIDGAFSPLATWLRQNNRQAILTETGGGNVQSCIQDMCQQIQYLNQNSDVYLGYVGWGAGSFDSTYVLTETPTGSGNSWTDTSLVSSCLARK

B1: IFF21349 (protein)
chain: VLDKPVIQPNFPGGGLDSLSQGLLDNLAPTQSTWDEWGAGWIPQDCKTLAEGSGFSALDITTFNIYYTDCADAWVFCRHKDAPLSEIDMIDLFGRMPVRMRDFVRHIIAVPGNPSAGSSGDNIQMNGGLPITVFVHETGHSLDSHAFSEPFSLSQAWIDAYNQDSAVPDSYAQTSQQENFAQETVVALYDKVVPGGVGTIQPNWNAIFHAYATLQGYIGDVIIPGGTCVNRLTNSAPVPQSNSAKVRIASEKPDVTLRGNVTVLESIPMGSSIELTHFDAEGKPTGRSTVNLG
B1 showed a Relative late peak area (centered, scaled, averaged over 5, 10 and 15 min) of 0.02 and a Relative late peak area (centered, scaled, averaged over doses, 24 h; sample diluted 2-fold) of 0.56.

B2: IFF21339 (protein)
chain: NLNKPVITPNFPGNGLASLGPGLMNNLAPTHSTWDDWGAGWIPSDCKSMVQGAGFSPNDIIPFNIHYDDCAQTWTFCRHKNSPLSEIQILDIFGRLPVRMRQFVRHLVFVPGNKSAGSNGDNVLMVGDVDVTVFAHEIGHSLDSHAFDSSYGVPFSTGNVWVSNYNLDSAVPDPYAQSSQQENFAQQTVVSLYDKVVPGGIGTIQPNWQAIFHQYATLEGYIGNVIIPGGTCTHRLTDSAPVTMSGSKKSRRALGPKPKVSLSPKVKEIEAIPMESSITMTSFDEHGKPNGTYVIHL
B2 was tested, and the Relative late peak area (centered, scaled, averaged over 5, 10 and 15 min) was -0.05 and the Relative late peak area (centered, scaled, averaged over doses, 24 h; sample diluted 2-fold) was 0.53.

B3: IFF21337 (protein)
chain: NLNKPVITPNFPGNGLASLGQGLMDHLAPTHSTWDDWGAGWIPSDCKSMVQGAGFSPNDIIPFNIHYDDCAQSWTFCRHKNSPLSEVQILDIFGRLPVRMRQFVRHLVFVPGNKSAGSNGDNVLMVGDVDVTVFAHEIGHSLDSHAFDPSYGVPFSTGNVWVSNYNLDSAVPDPYAQSSQQENFAQETVVSLYDKAVPGGIGTIQPNWQAIFHQYATLEGYIGDVIIPGGTCTHRLTDSAPVTMSGSKKSRRALGPKPKVSLSPKVKEIEAIPMESSITMTSFDEHGKPNGTYVVHL
In the case of B3, the Relative late peak area (centered, scaled, averaged over 5, 10 and 15 min) is reported as 0.9 and the Relative late peak area (centered, scaled, averaged over doses, 24 h; sample diluted 10-fold) is reported as 0.52.

B4: IFF21352 (protein)
chain: NLNKPVIQPNFPSLAPGLMSHLSPTHSTWDDWGAGWIPRDCKSMVQGAGFSPNDIIPFNIHYDDCGQTWTFCRHKKSPLSELQILDMFGRLPVRMRSFIRHMVFVPGTRSAGSNGDNILVVGDGDITLFAHEIGHSLDSHAFDPSYGVPFSTGNVWVSNYNLDSAVSDSYAQSSQQENFAQETVISLFDKVVPGGIGTIQPNWRAIFHQYATLQGYIGNVIIPGGTCTHRLTDSPPVPMSGSAKSRRGLGLKPDVSLTPEVKEIEAIPMESSITMTSFNEQGKPSGTYVIHLK
In the case of B4, the Relative late peak area (centered, scaled, averaged over 5, 10 and 15 min) is reported as -0.63 and the Relative late peak area (centered, scaled, averaged over doses, 24 h; sample diluted 1-fold) is reported as 0.42.

B5: IFF21375 (protein)
chain: QTLDKPALTPNLDYLLQGNTDNLQPAASHYGKWEDGWIPADCKSIAEDQQLNPTDFEVYDVFYGDCGDAWSFCRHKSSSDSIDTIIDTFGRVPVRMRSWVRHVLTIPGDNWAFNSNGNIAFSGTTSQNLDVALHETGHSLDLLGAYGETLSSSQTWLDNYNQDPNVPDEYARSNQVENVAQNTVVGIYDKVVPGGFGSVQPNWGNIFHQYSTLQSMAKDTIIPGGTCDRHLANSETVSMASTQSNATRMARIRRVKPSHSFRQTYDNIVEGFTPFSTKDTCHFSWA
Protein B5 has a Relative late peak area (centered, scaled, averaged over 5, 10 and 15 min) of 1.08, a Relative late peak area (centered, scaled, averaged over doses, 24 h; sample diluted 10-fold) of 0.42 and a Relative late peak area (reverse phase chromatography, 24 h) of 0.63.

B6: IFF21365 (protein)
chain: DDTLSKPALTDNLDYLLDGNVASLPSNGGPYWGKWEDGLMPADCKSIAEDQGLNPTDFEVWDIFFDDCQDGWSFCRHKDSADSFETLVDTFGRVPVRMRSWVRHVLTIPGDNWAFNSNGNICFSGTTSQNLDVALHETGHSLDLLGAYGDGALSSSQEWLDAYNADSNVPDNYARSNQVENVAQNTVVAVYDKNVPGGFPGVQTDYAKIQNQYTLVEDKAGDQIVPGGTCDRHLENSETVPMSGSSAKRDIRIKGRAVGAGAVTHDWKFKGTYSNIVTDFEPFNSKDFHH
For B6, the Relative late peak area (centered, scaled, averaged over 5, 10 and 15 min) was 1.04, the Relative late peak area (centered, scaled, averaged over doses, 24 h; sample diluted 10-fold) was 0.38 and the Relative late peak area (reverse phase chromatography, 24 h) was 0.61.

B7: IFF21340 (protein)
chain: NLNKPVITPNFPGNGLASLGPGLMNNLAPTHSTWDDWGAGWIPADCKSMVQGAGFSPNDIIPFNIHYDDCAQSWTFCRHKNSPLSEIQILDIFGRLPVRMRQFVRHLVFVPGNKSAGSNGDNVLMVGDVDVTVFAHEIGHSLDSHAFDPSYGVPFSTGNVWVSNYNLDSAVPDPYAQSSQQENFAQQTVVSIYDKVVPGGIGTIQPNWQAIFHQYATLEGYIGNVIIPGGTCTHRLTDSAPVTMSGSKKSRRALGPKPKVSLSPKVKEIEAIPMESSITMTSFDEHGKPNGTYVVHL
Work on B7 yielded a Relative late peak area (centered, scaled, averaged over 5, 10 and 15 min) of -0.31, a Relative late peak area (centered, scaled, averaged over doses, 24 h; sample diluted 2-fold) of 0.37 and a Relative late peak area (reverse phase chromatography, 24 h) of 0.33.

B8: IFF21336 (protein)
chain: NLNKPVITPNFPGNGLASLGQGLMDHLAPTHSTWDDWGAGWIPQDCKSMVQGAGFSPNDIIPFNIHYDDCAQTWTFCRHKNSPLSEIQILDIFGRLPVRMRQFVRHLVFVPGNKSAGSNGDNVLMVGDVDVTVFAHEIGHSLDSHAFDPSYGVPFSTGNVWVSNYNLDSAVPDPYAQSSQQENFAQQTVVSIYDKVVPGGIGTIQPNWQAIFHQYATLEGYIGNVIIPGGTCTHRLTDSAPVTMSGSKKSRRALGPKPKVSLSPKVKEIEAIPMESSITMTSFDEHGKPNGTYVVHL
In the case of B8, the Relative late peak area (centered, scaled, averaged over 5, 10 and 15 min) is reported as -0.34 and the Relative late peak area (centered, scaled, averaged over doses, 24 h; sample diluted 2-fold) is reported as 0.36.

B9: IFF21335 (protein)
chain: TLDKPVIQPNFPGNGLASLGQGLLDNLAPTHSTWDDWGAGWIPQDCKTLVEGAGFSASDVIPFNIHYDDCAQTWTFCRHKDSPLSEVQILDLFGRLPVRMRSFVRHLVFIPGNKSAGSSGDNVLMTGPVDITVYAHEIGHSLDSHAFDPSYGVPFSTGNVWISNYNLDSAVTDPYAQTSQQENFAQETVVSLYDKVVPGGIGTIQSNWQAIFHQYATLEGYIGDVIIPGGTCTHRLTDSPAVPMSGSAKLRRGLGPKPHVALSPEVEEIEAIPMKSSITMTSFDEAGKPNGTYVINL
With B9 the Relative late peak area (centered, scaled, averaged over 5, 10 and 15 min) was 0.67, the Relative late peak area (centered, scaled, averaged over doses, 24 h; sample diluted 10-fold) was 0.3 and the Relative late peak area (reverse phase chromatography, 24 h) was 0.66.

B10: IFF21367 (protein)
chain: QNLNKPVLFTDGLSPHVDSVFFQHLTPTQSTWDQWGWGWIPQACLSVVQGTQFSPYDIEVYNVHYTDCASAVVMCRHNQAQMSIINMIDAFGRVPIHDRQWTQHILALPASSCSAGTGGAVTTFYGPCYIPSVFVHELTHTLDAYVNDQTGSTGSVHVYSTTSSYLNSVNQDSCVPDGYANTSPQEDYAQTSVLALYEKVNPGGLDPIGNWRCLVNAKNNLDSIIGQELTPGGSCTHRWADSAIVCMGPAAGCASSKRGFSTRRGARVAGPKPEPANKKGDPLVSNLTPDLTSAVNAKIDDFSHLVSNHTASIEATIRINAWNKAAGKKTVPVPTA
Protein B10 has a Relative late peak area (centered, scaled, averaged over 5, 10 and 15 min) of -0.67 and a Relative late peak area (centered, scaled, averaged over doses, 24 h; sample diluted 1-fold) of 0.19.

B11: IFF21378 (protein)
chain: LDKPALTPDLDYLLDGNTANLPQNGGAHWGKWEDGLMPEDCKSIAEGQDLNPADFEVYDVFYDDCQDAWSFCRHKDSPEDLETLVNTFGRVPVRMRSWVRHVLSIPGNNWAFNSNGNIALSGTTTHNLDVCLHETGHSLDLLGAYVDGALSSTQEWEDAYNKDSAVPDNYARTNQVENVAQNTVVGIYDKVVPGGFPGVQSESQKIENQYKLLQDKAGEQILPGGTCDRHLQNSATVSIKSSSKRENKVVKAREAHDSALKGTYTNIVKEFTPFNTKDFHEEH
Protein B11 has a Relative late peak area (centered, scaled, averaged over 5, 10 and 15 min) of -0.6, a Relative late peak area (centered, scaled, averaged over doses, 24 h; sample diluted 1-fold) of 0.1 and a Relative late peak area (reverse phase chromatography, 24 h) of 0.52.

B12: IFF21380 (protein)
chain: QQLDKPALTNDLDYLLEGNVNNLPSNGGPYWGKWEAGLMPADCKSIAESQDLDPTDFEVWDIFFDDCQDGWSFCRHVDSADSFETLVDTFGRIPVRMRSWIRHILTIPGDNWAFNSNGNIAFSGTTSANLDVALHETGHSLDLLGAYGSEALSSTQEWLDAYDADSNVPDNYARSNQVENVAQNTVVGIYDKVVPGGFPGVQPNYQNIENQYTLLQDKAGDQIIPGGTCDRHLENSETVSASGSSKKARDSVNKKSRAVAHDPAFKGTYTNIVKDFVPFNTQDYHH
B12 was tested, and the Relative late peak area (centered, scaled, averaged over 5, 10 and 15 min) was -0.71, the Relative late peak area (centered, scaled, averaged over doses, 24 h; sample diluted 1-fold) was -0.02 and the Relative late peak area (reverse phase chromatography, 24 h) was 0.61.

B13: IFF21363 (protein)
chain: QLDKPVIDPEFPSGALDQGLNDHLRAPGSSWDAWEEGWIPEDCKNMIEGTEFSVQDITPFNIHYDDCEDPWVFCRHKDSPLSEDYIVDAFGKMPVRFRSFVRHMLFVPGTESAGSSGDNVQMNGDLPITVFIHETAHSFDGHHGLPDIEGGFSASQAWLDAYNADSAVTDDYGQTSQAENFAQQTVVALFDSNVPDGVASIQPSWQSIENQFRLIQDRAADILRPDGTCTSRLENSAPVEKGGSARLRPSASTKPDVSLKGKIKVIEPVPMGAEMEMAQYDASGKVVGTKVVKVGGRE
With B13 the Relative late peak area (centered, scaled, averaged over 5, 10 and 15 min) was -0.43, the Relative late peak area (centered, scaled, averaged over doses, 24 h; sample diluted 2-fold) was -0.13 and the Relative late peak area (reverse phase chromatography, 24 h) was 0.3.

B14: IFF21331 (protein)
chain: ALDKPIIDPEFPGGGLASLGQGLLDNLAPTQSTYADWEAGFIPQDCKTIAEGNSLSPLDIIPFNITYTDCSDPWIFCRHKDSPLSEVDMIDLFGRMPVGMRSFIRHIISIPGDKSAGSNGDNVQMNGDVDITVFIHETGHSLDSHGFDASYGVPFSTGQVWTDNYNLDSAVTDSYAQSSQQENFAQETVVALYDKVVPGGVGTIQPNWQAIQHQYETIQGYAGGIIIPGGTCTNRLPNSPAVPMSDSAKYRVNMAHKPDVSLSNYVTEIKSIPMEPIMKLTHYDAAGRPIGKSTIDLST
B14 gave a Relative late peak area (centered, scaled, averaged over 5, 10 and 15 min) of -0.86 and a Relative late peak area (centered, scaled, averaged over doses, 24 h; sample diluted 1-fold) of -0.21.
